Data reported in the nanobody polyreactivity screen of Harvey et al. (2022).

Assay: yeast display, Sf9 membrane polyspecificity reagent, FACS + sequencing; frameworks hold sequencing errors
How it was run: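 Using colony PCR, genes from sorted yeast display clones were amplified, then sequenced on MiSeq at 2 × 250 and filtered by CDR length. The clones had been stained with 10% biotinylated, detergent-solubilized Sf9 membrane reagent for 1 hour at 4 °C and sorted by FACS into low and high (top ~1%) gates on anti-HA and streptavidin fluorescence. Polyreactivity labels come from the gate of origin.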

QVQLVESGGGLVQAGRSLRLTCAASGSTFSIYVMGWYRQAPGKERELVAAITWSDGIKYYADSVKGRFTISRDNAKNTVYLQMNSLKRDDTAVYYCRDSHPSYRPGTVRYDYLGQGTQVTVSS
polyreactivity (PSR sort gate): low polyreactivity

QVQLVESGGGLVQAGSSLRLSCAASGRIFGYYAMGWYRQAPGKEREFVASITYSGGRTYYADSVKGRFTISRDNAKNTVYLQMNSLKPEDTAVYYCAKRQSFLGVSYDYWGQGTQVTVSS
polyreactivity (PSR sort gate): high polyreactivity

QVQLVESGGGLVQAGVILRLSCAASGRIFIPYAMGWYIQAPGKERELVAAISYRGGSTYYADSVKGRFTISRDNAKNTVYLQMNSLKPEDTAVYYCANYDYWGQGTQVTVSS
polyreactivity (PSR sort gate): high polyreactivity

QVQLVESGGGLVQAGVRLRLSCPASGITFEGYAMGWYRKAPGKERELVAAIRSSGTSTYYADSVKGRFTISRDNAKNTVYLQMNSLKPEDTAVYYCNRARSSSRYDYWGQGTKVTVSS
polyreactivity (PSR sort gate): low polyreactivity

QVQLVESGGGLVQAGVSLRIRCAASGSIFFFNAMGWYRQAPGKEREFVAAITSSSGRTYYAYSVKVRFTISRDNAKNTVYLQMKSLKPEDTAVYYCAAQVPEDNETVDYWGQGTQVTVSS
polyreactivity (PSR sort gate): low polyreactivity

QVQLVESGGGLVQAGVSLRLICAASGRIFALNTMGWYRQAPGKEREFVAAITTSGGSTYADSVKGRFTISRDNAKNTVYFQMNSLKPEYTAVYYFNKEYFHNWAPTYDYWGQGTQVTVSS
polyreactivity (PSR sort gate): low polyreactivity

QVQLVESGGGLVQAGVSLRLSCAASGFIFPYYAMGWYRQAPGKERELVAAITRGGRTYYADSVKGRFTISRDNAKNTVYLQMNSLKPEDTAVYYCAARSVGKRGYDYWGLGTQVTVSS
polyreactivity (PSR sort gate): high polyreactivity

QVQLVESGGGLVQAGVSLRLSCAASGFIIYGNAMGWYRQAPGKERELVAAINQTGSSTYADSVKGRFTISRDNAKNTVYLQMNSLKPEATAVYYCNKGSWYFFLYDYWGQGTQVTVSS
polyreactivity (PSR sort gate): low polyreactivity

QVQLVESGGGLVQAGVSLRLSCAASGFTFDYYAMGWYRQAPGKERELVAAISWSGGSTYYADSVKGRFTISRDNAKNTVFLQMNSLKPEDTAVYYCAGGRPNPRGRGLAYDFWVQGTQVTVSS
polyreactivity (PSR sort gate): high polyreactivity

QVQLVESGGGLVQAGVSLRLSCAASGFTFWRNAMGWYRQAPGKERELVAAISASGGSTYYADSVKGRFTISRDNAKNTVYLQMNSLKPEDTAVYYCAADTQGFYRYDYWGQGTQVTVSS
polyreactivity (PSR sort gate): low polyreactivity

QVQLVESGGGLVQAGVSLRLSCAASGITFPYYTMGCYRQAPGKERELVAAITSGGSTNYADSVKGRFTISRDNAKNTVYLQMNSLKPEDTAVYYCDGVLWLFDYWGQGTQVTVSS
polyreactivity (PSR sort gate): high polyreactivity

QVQLVESGGGLVQAGVSLRLSCAASGRIFAVNAMGWYRQAPGKERELVASIRWSGGSTYYADSVKGRFTISRDYAKNTVYLQMNSLKPEETAVYYCAAVIYLWGQGTQVTVSS
polyreactivity (PSR sort gate): high polyreactivity

QVQLVESGGGLVQAGVSLRLSCAASGRTFFYNAMGWYRQAPGKERELVAAISSGGGYTYYADSVKGRFTISRDNAKNTVYLQMNSLKPEDTAVYYCAAASYRQPGYGYWGQGTQVTVSS
polyreactivity (PSR sort gate): high polyreactivity

QVQLVESGGGLVQAGVSLRLSCAASGRTFGQYVMGWYRQAPGKERELVAAIRSGGSTYYADSVKGLFTISRDNAKNTVYIQLNSLKPEDTAVYYCNADSGPIDGRGGYWGQGTQVTVSS
polyreactivity (PSR sort gate): low polyreactivity

QVQLVESGGGLVQAGVSLRLSCAASGRTFSSYAMGWYRQAPRKERELVPGISWRGGRTYYADSVKGRFTISRDNGKNSVYLQMNSLKREDTAVYYCNKVYRTYYGDYRFSGIPRYDYVGQGTQVTVSS
polyreactivity (PSR sort gate): high polyreactivity

QVQLVESGGGLVQAGVSLRLSCAASGRTFYRYVMGWYRQAPGKERELVAAITPGGSTYADSVKGRFTISRDNAKNTVYLQMNSLKPEDTAVYFCNKRKASSSGYNYWGQGTQVTVSS
polyreactivity (PSR sort gate): low polyreactivity

QVQLVESGGGLVQAGVSLRLSCAASGRTSAYSAMGWYRQAPGKERQLVAGITRGGRTNYADSVKGRFTISRDNAKNTVYLQMHSLKPEDTAVYYCAAKYGYYWNSRTSGYWGQGTQVTVSS
polyreactivity (PSR sort gate): high polyreactivity

QVQLVESGGGLVQAGVSLRLSCAASGSFFGYYTMGWYRQAPGTERELVAAISASGGSTYYADSVKGRFTISRDNANNTVYLQLNSLKPEDTAVYYCAATSAANFPRGYYYWGQGTQVTVSS
polyreactivity (PSR sort gate): high polyreactivity

QVQLVESGGGLVQAGVSLRLSCAASGSIFFYNARGWYRQAPRKERELVAAITTRGGSTYYADSVKGRFTISRDNAQNYVYLQMNSLKPEDTAVSYCARSSRGKLDYWGQGTQVTVSS
polyreactivity (PSR sort gate): low polyreactivity

QVQLVESGGGLVQAGVSLRLSCAASGSIFGYYAMGWYRQAPGKERELVAAINYSGVSTYYADSVKGRFTISRDNAKNTVYLQMNSLKPDDTAVYYCAAKGRKSVYSRNSWGQGTQVTVSS
polyreactivity (PSR sort gate): high polyreactivity

QVQLVESGGGLVQAGVSLRLSCAASGSIFQTYDMGWYRQAPGKERELVAAITGSGDSTYYADSVKGRFTISRDNAKNTVYLQMNSLKPEDTAVYYCNADGPSTPWVEYGYWGQGTQVTVSS
polyreactivity (PSR sort gate): low polyreactivity

QVQLVESGGGLVQAGVSLRLSCAASGSIFVYNAMGWYRQAPGKERELVAAISSSGTRTYYADSVKARFTISRDNAKNTVYLQMNSLKPEDTAVYYCAAYYVPWGTLYHLDYWGQGTQVTVSS
polyreactivity (PSR sort gate): high polyreactivity

QVQLVESGGGLVQAGVSLRLSCAASGSTFSNYAMGWYRQAPGKERELVAGIDWSGGSTYYADSVKGRFTISRDNEKITVYLQMNSLKPEDTAVYYCAKRVWYHGRKLRGYYWGQGTQVTVSS
polyreactivity (PSR sort gate): low polyreactivity

QVQLVESGGGLVQAGVSLRLSCAASGSTFYYYAMGWYRQAPGKERELVATISSGSSTNYADSVKGRFTISRDNAKNTVYLQMNSLKPEDTAVYYCAADRWYITLSIDATISYDYWGQGTQVTVSS
polyreactivity (PSR sort gate): low polyreactivity

QVQLVESGGGLVQAGVSLRLSCAASGSTLISNTMGWNRQAPWKERELVAAITRTGGRTYYADSVKGRFTSSRDTAKNTVDLPMNSLKPEDTAVYYCARYGGYLSLKYDYWGQGTQVTVAS
polyreactivity (PSR sort gate): high polyreactivity

QVQLVESGGGLVQAGVSLRLSCAASGVNAMGWYRQAPGKEREFVAAITSIGGSTYYADSVKGRFTISRDNAKNTVYLQMNSLKPEDTAVYYCNTDRGPVKVSPLYESWGQGTQVTVSS
polyreactivity (PSR sort gate): low polyreactivity

QVQLVESGGGLVQAGVSLRLSCHASGSIFYYNTMGWYRQSPGKERELVATISSDGGTNYADSVKGRFTISRDNAKYTVYLQMNSLKPEDTAVYYCAKDGSNRLALPAWDYNYWGQGTQVTVSS
polyreactivity (PSR sort gate): low polyreactivity

QVQLVESGGGLVQARGSLLLSSAASGLIFQTYTMGWYRQAPGKERELVAAITSSGGRTYYADSVKGRFTISRDNAKNSVFLQKNSLKPEDTAVYYCAARRPPSAGMGYWGQGTQVTVSS
polyreactivity (PSR sort gate): high polyreactivity

QVQLVESGGGLVQARGSLRLSCAASGFIFASNAMGWYRQAPGKERELVAAITKSGGRTYYADSVKARFTISRDTAKNTVYLQMNSLKPVDTAVYYCAAKVRVVHRPYDHWGQGTQVTVSS
polyreactivity (PSR sort gate): high polyreactivity

QVQLVESGGGLVQARGSLRLSCAASGFTFGYNAMGWYRKAPGTERELVAVITQSGGRTYYADSVKGRFTISRDNANNSVYLQMNSLKPEDTAVYYCAARYRLAPYYYWGQGTQVTVSS
polyreactivity (PSR sort gate): high polyreactivity

QVQLVESGGGLVQARGSLRLSCAASGLTFRIYAMGWYRQAPGKERELVAAITRGGSTYADSVKGRFTISRDNAKNTVYLQMNSLKPEDTAVYYCAARVRSTSQVSASPVWYYYWGLGTQVTVSS
polyreactivity (PSR sort gate): high polyreactivity

QVQLVESGGGLVQARGSLRLSCAASGNTFPSYAMGWYRQAHGKERELVAAITSGGRTYYADSVNGRFTISRDNAKNTVYLQLNSLKPEDTAVYYCAAEWVVRYPWYRYYYWGQGTEVTVSS
polyreactivity (PSR sort gate): high polyreactivity
